According to patent US10801046B2, “Methods and materials for biosynthesizing multifunctional, multivariate molecules via carbon chain modification” (INVISTA NORTH AMERICA S.A.R.L., priority 2016, dated 2020):

Legend:
[1] = Carboxylate reductase activity, 7-hydroxyheptanoate to 7-hydroxyheptanal, NADPH consumption at 340 nm; format: biochemical; conditions: enhanced by gene product of sfp, 20 min, against empty vector control, FIG. 44
Description: A sequence encoding a His-tag was added to the genes from Mycobacterium marinum, Mycobacterium smegmatis, Segniliparus rugosus, Mycobacterium smegmatis, Mycobacterium massiliense, and Segniliparus rotundus that encode the carboxylate reductases of SEQ ID NOs: 25 (GenBank Accession No. ACC40567.1), 27 (GenBank Accession No. ABK75684.1), 29 (GenBank Accession No. ABK71854.1), 31 (GenBank Accession No. EFV11917.1), 37 (GenBank Accession No. EIV11143.1), and 38 (GenBank Accession No. ADG98140.1) such that N-terminal HIS tagged carboxylate reductases could be produced. Each of the modified genes was cloned into a pET Duet expression vector alongside a sfp gene encoding a His-tagged phosphopantetheine transferase from Bacillus subtilis, both under control of the T7 promoter.
Each expression vector was transformed into a BL21[DE3] E. coli host and the resulting recombinant E. coli strains were cultivated at 37° C. in a 250 mL shake flask culture containing 50 mL LB media and antibiotic selection pressure, with shaking at 230 rpm. Each culture was induced overnight at 37° C. using an auto-induction media.
The pellet from each induced shake flask culture was harvested via centrifugation. Each pellet was resuspended and lysed via sonication. The cell debris was separated from the supernatant via centrifugation. The carboxylate reductases and phosphopantetheine transferase were purified from the supernatant using Ni-affinity chromatography, diluted 10-fold into 50 mM HEPES buffer (pH=7.5) and concentrated via ultrafiltration.
Enzyme activity (i.e., 7-hydroxyheptanoate to 7-hydroxyheptanal) assays were performed in triplicate in a buffer composed of a final concentration of 50 mM HEPES buffer (pH=7.5), 2 mM […], 10 mM MgCl2, 1 mM ATP, and 1 mM NADPH. Each enzyme activity assay reaction was initiated by adding purified carboxylate reductase and phosphopantetheine transferase or the empty vector control to the assay buffer containing the 7-hydroxyheptanoate and then incubated at room temperature for 20 min. The consumption of NADPH was monitored by absorbance at 340 nm.

[2] = Carboxylate reductase activity, N7-acetyl-7-aminoheptanoate to N7-acetyl-7-aminoheptanal, NADPH consumption at 340 nm; format: biochemical; conditions: enhanced by gene product of sfp, 2 mM substrate, 20 min, against empty vector control, FIG. 45
Description: The activity of each of the N-terminal His-tagged carboxylate reductases of SEQ ID NOs: 29 (GenBank Accession No. ABK71854.1), 37 (Genbank Accession No. EIV11143.1), and 38 (GenBank Accession No. ADG98140.1) (see Examples 4) for converting N7-acetyl-7-aminoheptanoate to N7-acetyl-7-aminoheptanal was assayed in triplicate in a buffer composed of a final concentration of 50 mM HEPES buffer (pH=7.5), 2 mM N7-acetyl-7-aminoheptanoate, 10 mM MgCl2, 1 mM ATP, and 1 mM NADPH. The assays were initiated by adding purified carboxylate reductase and phosphopantetheine transferase or the empty vector control to the assay buffer containing the N7-acetyl-7-aminoheptanoate then incubated at room temperature for 20 min. The consumption of NADPH was monitored by absorbance at 340 nm.

[3] = Aminotransferase activity, forward direction (7-oxoheptanoate to 7-aminoheptanoate), pyruvate formation by RP-HPLC; format: biochemical; conditions: cell free extract, 10 mM substrate, 10 mM L-alanine, 25° C., 4 h, against empty vector control, FIG. 49
Description: (§1) A sequence encoding an N-terminal His-tag was added to the genes from Chromobacterium violaceum, Pseudomonas syringae, Rhodobacter sphaeroides, and Vibrio Fluvialis encoding the aminotransferases of SEQ ID NOs: 116 (GenBank Accession No. AAQ59697.1), 126 (GenBank Accession No. AAY39893.1), 127 (GenBank Accession No. ABA81135.1), and 128 (GenBank Accession No. AEA39183.1), respectively such that N-terminal HIS tagged aminotransferases could be produced. Each of the resulting modified genes was cloned into a pET21a expression vector under control of the T7 promoter and each expression vector was transformed into a BL21 [DE3] E. coli host. The resulting recombinant E. coli strains were cultivated at 37° C. in a 250 mL shake flask culture containing 50 mL LB media and antibiotic selection pressure, with shaking at 230 rpm. Each culture was induced overnight at 16° C. using 1 mM IPTG.
The pellet from each induced shake flask culture was harvested via centrifugation. Each pellet was resuspended and lysed via sonication. […]
Enzyme activity in the forward direction (i.e., 7-oxoheptanoate to 7-aminoheptanoate) was confirmed for the aminotransferases of SEQ ID NO: 126 (GenBank Accession No. AAY39893.1), SEQ ID NO: 127 (GenBank Accession No. ABA81135.1), and SEQ ID NO: 128 (GenBank Accession No. AEA39183.1). […] The formation of pyruvate was quantified via RP-HPLC.

[4] = Aminotransferase activity, heptane-1,7-diamine to 7-aminoheptanal, L-alanine formation by RP-HPLC; format: biochemical; conditions: cell free extract, 10 mM substrate, 25° C., 4 h, against empty vector control, FIG. 50
Description: A sequence encoding an N-terminal His-tag was added to the Chromobacterium violaceum, Pseudomonas aeruginosa, Pseudomonas syringae, Rhodobacter sphaeroides, Escherichia coli, and Vibrio fluvialis genes encoding the aminotransferases of SEQ ID NOs: 116 (GenBank Accession No. AAQ59697.1), 119 (RefSeq Accession No. NP_417544.5), 125 (GenBank Accession No. AAGO8191.1), 126 (GenBank Accession No. AAY39893.1), 127 (GenBank Accession No. ABA81135.1), and 128 (GenBank Accession No. AEA39183.1), respectively such that N-terminal HIS tagged aminotransferases could be produced. The modified genes were cloned into a pET21a expression vector under the T7 promoter. Each expression vector was transformed into a BL21[DE3] E. coli host. Each resulting recombinant E. coli strain were cultivated at 37° C. in a 250 mL shake flask culture containing 50 mL LB media and antibiotic selection pressure, with shaking at 230 rpm. Each culture was induced overnight at 16° C. using 1 mM IPTG.
(§2) The pellet from each induced shake flask culture was harvested via centrifugation. Each pellet was resuspended and lysed via sonication. The cell debris was separated from the supernatant via centrifugation and the cell free extract was used immediately in enzyme activity assays.
(§3) Enzyme activity assays in the reverse direction (i.e., heptane-1,7-diamine to 7-aminoheptanal) were performed in a buffer composed of a final concentration of 50 mM HEPES buffer (pH=7.5), 10 mM heptane-1,7-diamine, 10 mM pyruvate, and 100 μM pyridoxyl 5′ phosphate. Each enzyme activity assay reaction was initiated by adding cell free extract of the aminotransferase gene product or the empty vector control to the assay buffer containing the heptane-1,7-diamine and then incubated at 25° C. for 4 h, with shaking at 250 rpm. The formation of L-alanine was quantified via RP-HPLC.

[5] = Aminotransferase activity, N7-acetyl-1,7-diaminoheptane to N7-acetyl-7-aminoheptanal, L-alanine formation by RP-HPLC; format: biochemical; conditions: cell free extract, 10 mM substrate, 25° C., 4 h, against empty vector control, FIG. 51
Description: The activity of the N-terminal His-tagged aminotransferases of SEQ ID NOs: 116 (GenBank Accession No. AAQ59697.1), 119 (RefSeq Accession No. NP_417544.5), 125 (GenBank Accession No. AAGO8191.1), 126 (GenBank Accession No. AAY39893.1), 127 (GenBank Accession No. ABA81135.1), and 128 (GenBank Accession No. AEA39183.1) (see Example 6) for converting N7-acetyl-1,7-diaminoheptane to N7-acetyl-7-aminoheptanal was assayed using a buffer composed of a final concentration of 50 mM HEPES buffer (pH=7.5), 10 mM N7-acetyl-1,7-diaminoheptane, 10 mM pyruvate and 100 μM pyridoxyl 5′ phosphate. Each enzyme activity assay reaction was initiated by adding a cell free extract of the aminotransferases or the empty vector control to the assay buffer containing the N7-acetyl-1,7-diaminoheptane then incubated at 25° C. for 4 h, with shaking at 250 rpm. The formation of L-alanine was quantified via RP-HPLC.

[6] = In vivo aminotransferase activity screening, 7-aminoheptanoate by LC-MS; format: cell-based, Escherichia coli; conditions: in vivo conversion of 7-oxoheptanoate to 7-aminoheptanoate, 120 aminotransferases screened
Summary of the method: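 Aminotransferase library expressed in E. coli T7 Express lysY/Iq co-expressing sfp, CAR_Srot and BioC, grown overnight at 37° C in rich media with 0.4 mM IPTG and 1 g/L monomethyl heptanedioate, heptanedioate or no acid. Culture supernatants analysed by LC-MS for 7-aminoheptanoate or its monomethyl ester.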

[7] = Aminotransferase activity, reverse direction (7-aminoheptanoate to 7-oxoheptanoate), L-alanine formation by RP-HPLC; format: biochemical; conditions: cell free extract, 10 mM substrate, 25° C., 4 h, against empty vector control, FIG. 48
Description: as §1, §2
as §3, with “7-aminoheptanoate” for “heptane-1,7-diamine”, “7-oxoheptanoate)” for “7-aminoheptanal)”, “7-aminoheptanoate,” for “heptane-1,7-diamine,”, “pyruvate” for “pyruvate,”, “and” for “and then”, “L-alanine from pyruvate” for “L-alanine”

| Molecule | acceptance of 7-hydroxyheptanoate as substrate, forming 7-hydroxyheptanal [1] | acceptance of N7-acetyl-7-aminoheptanoate as substrate, forming N7-acetyl-7-aminoheptanal [2] | acceptance of 7-oxoheptanoate as substrate, forming 7-aminoheptanoate [3] | acceptance of heptane-1,7-diamine as substrate, forming 7-aminoheptanal [4] | acceptance of N7-acetyl-1,7-diaminoheptane as substrate, forming N7-acetyl-7-aminoheptanal [5] | 7-aminoheptanoate yield compared to the positive control (F2XBU9) [6] | acceptance of 7-aminoheptanoate as substrate [7] |
| --- | --- | --- | --- | --- | --- | --- | --- |
| SEQ ID NO: 37: Mycobacterium massiliense carboxylate reductase (protein, Mycobacterium abscessus subsp. bolletii 2B-0307, Mycobacterium massiliense carboxylate reductase) MTNETNPQQEQLSRRIESLRESDPQFRAAQPDPAVAEQVLRPGLHLSEAIAALMTGYAERPALGERARELVIDQDGRTTLRLLPRFDTTTYGELWSRTTSVAAAWHHDATHPVKAGDLVATLGFTSIDYTVLDLAIMILGGVAVPLQTSAPASQWTTILAEAEPNTLAVSIELIGAAMESVRATPSIKQVVVFDYTPEVDDQREAFEAASTQLAGTGIALETLDAVIARGAALPAAPLYAPSAGDDPLALLIYTSGSTGAPKGAMHSENIVRRWWIREDVMAGTENLPMIGLNFMPMSHIMGRGTLTSTLSTGGTGYFAASSDMSTLFEDMELIRPTALALVPRVCDMVFQRFQTEVDRRLASGDTASAEAVAAEVKADIRDNLFGGRVSAVMVGSAPLSEELGEFIESCFELNLTDGYGSTEAGMVFRDGIVQRPPVIDYKLVDVPELGYFSTDKPHPRGELLLKTDGMFLGYYKRPEVTASVFDADGFYMTGDIVAELAHDNIEIIDRRNNVLKLSQGEFVAVATLEAEYANSPVVHQIYVYGSSERSYLLAVVVPTPEAVAAAKGDAAALKTTIADSLQDIAKEIQLQSYEVPRDFIIEPQPFTQGNGLLTGIAKLARPNLKAHYGPRLEQMYAEIAEQQAAELRALHGVDPDKPALETVLKAAQALLGVSSAELAADAHFTDLGGDSLSALSFSDLLRDIFAVEVPVGVIVSAANDLGGVAKFVDEQRHSGGTRPTAETVHGAGHTEIRAADLTLDKFIDEATLHAAPSLPKAAGIPHTVLLTGSNGYLGHYLALEWLERLDKTDGKLIVIVRGKNAEAAYGRLEEAFDTGDTELLAHFRSLADKHLEVLAGDIGDPNLGLDADTWQRLADTVDVIVHPAALVNHVLPYNQLFGPNVVGTAEIIKLAITTKIKPVTYLSTVAVAAYVDPTTFDEESDIRLISAVRPIDDGYANGYGNAKWAGEVLLREAHDLCGLPVAVFRSDMILAHSRYTGQLNVPDQFTRLILSLIATGIAPGSFYQAQTTGERPLAHYDGLPGDFTAEAITTLGTQVPEGSEGFVTYDCVNPHADGISLDNFVDWLIEAGYPIARIDNYTEWFTRFDTAIRGLSEKQKQHSLLPLLHAFEQPSAAENHGVVPAKRFQHAVQAAGIGPVGQDGTTDIPHLSRRLIVKYAKDLEQLGLL | accepted 7-hydroxyheptanoate as substrate | accepted N7-acetyl-7-aminoheptanoate as substrate | – | – | – | – | – |
| SEQ ID NO: 128: Vibrio fluvialis aminotransferase, positive control of the in vivo screen (protein, listed as Vibrio fluvialis) MNKPQSWEARAETYSLYGFTDMPSLHQRGTVVVTHGEGPYIVDVNGRRYLDANSGLWNMVAGFDHKGLIDAAKAQYERFPGYHAFFGRMSDQTVMLSEKLVEVSPFDSGRVFYTNSGSEANDTMVKMLWFLHAAEGKPQKRKILTRWNAYHGVTAVSASMTGKPYNSVFGLPLPGFVHLTCPHYWRYGEEGETEEQFVARLARELEETIQREGADTIAGFFAEPVMGAGGVIPPAKGYFQAILPILRKYDIPVISDEVICGFGRTGNTWGCVTYDFTPDAIISSKNLTAGFFPMGAVILGPELSKRLETAIEAIEEFPHGFTASGHPVGCAIALKAIDVVMNEGLAENVRRLAPRFEERLKHIAERPNIGEYRGIGFMWALEAVKDKASKTPFDGNLSVSERIANTCTDLGLICRPLGQSVVLCPPFILTEAQMDEMFDKLEKALDKVFAEVA | – | – | accepted 7-oxoheptanoate as a substrate | accepted heptane-1,7-diamine as substrate | accepted N7-acetyl-1,7-diaminoheptane as a substrate | higher 7-aminoheptanoate yields | accepted 7-aminoheptanote as substrate |
